# Assays:
# Mice dendritic cells = assay: Maturation and differentiation of mice bone marrow derived dendritic cells, activation markers and viability by FACS; format: cell-based
# Description: FIG. 1. Effect of the anti-CMKLR1 variants 1G1, 2G1, 3G1 and 4G1 chimeric antibodies on the DCs maturation and differentiation. Mice dendritic cells were incubated during maturation phase (24 h or 48 h) followed by a differentiation phase with excipient or RvE1 or anti-CMKLR1 antibodies variants (mutations on positions 1 and 2 of SEQ ID No. 8, corresponding to the VH-CDR3: 1G1 (LL), 2G1 (LI), 3G1 (IL) or 4G1 (II) or isotype controls (hIgG1 or mIgG)). Cells were then stained for FACS analysis with cell marker antibodies: A. CD80-PE; B. CD86-FITC; C. CD103-PerCPCy5.5; D. I/Ab-APC. Mean of Fluorescence was determined in each condition. E and F represent the viability of the cells measured by FACS using LIVE/DEAD® kit from Life Technologies in each condition after 24 or 48 hours of maturation respectively.
# FIG. 17. Study of the myeloid cell activation markers after CMKLR1 pathway activation. Dendritic cells incubated in excipient, RvE1, 2G1 or isotype control (hIgG1) were then stained for FACS analysis with marker antibodies: A. CD80-PE. B. CD86-FITC. C. CD103-PerCPCy5.5. D. CD40-PeCy7. E. I/Ab-APC. Mean of Fluorescence was determined in each condition.
# Bone marrow cells were harvested and cultured in RPMI medium supplemented with 10% FBS, glutamine and antibiotics and the dendritic cell differentiation was induced by GM-CSF at 20 ng/ml for 7 days. Then, immature dendritic cells (iDC) were collected and cultured for 24 hours with LPS (100 ng/ml) to induce the maturation from iDC to mDC. Treatments were added during differentiation and maturation at 2 μg/ml.
# Dendritic cells were resuspended in PBS-FBS-EDTA and incubated with live and dead (LIVE/DEAD® Fixable Dead Cell Stains Yellow-Life Technologies) for 30 minutes on ice. Staining of CD11c-BV711, CD11b-APCCy7, I/Ab-APC, CD103-PerCPCy5.5, CCR7-V450, CD40-PeCy7, CD80-PE, CD86-FITC (all provided by BD Pharmingen) were performed.
# [1] = system: C57BI/6 male mice, colitis induced by DSS; assay: Acute inflammatory colitis model induced by DSS; format: in vivo
# Description: FIG. 2. […] Mice were injected after 6 days of DSS induction with isotype control hIgG1 (10 μg per mouse) (x), RvE1 (1 μg per mouse) daily (•), or 2G1 antibody (10 μg per mouse) three times ( ) for 5 days. Wild type mice, not treated, are represented by an ▾. A. Animal weight loss. B. Animal stool score C. Colon length. D. Resolution index.
# Colitis was induced in 8-10 weeks-old-C57BI/6 male mice by adding 2% (wt/vol) of DSS to the sterile drinking ad libitum water for 6 days. Treatments were injected intra-peritoneally: Isotype control hIgG1 (10 μg per mouse), RvE1 (1 μg per mouse) daily, or 2G1 antibody (10 μg per mouse) three times for 5 days. Colitis follow-up consisting of body weight and stool score (0: normal stool; 4: blood in stool) parameters were performed daily. When mice were euthanized, colon length representing the pathology severity was measured. Resolution index was determined in the different conditions as described in Bannenberg et al., 2005.
# [2] = system: IL-10KO mice, spontaneous colitis; assay: IL10-KO spontaneous chronic colitis model; format: in vivo; conditions: 25 μg/injection i.p., 3 times a week, vs isotype control
# Description: FIG. 4. […] Mice KO for IL10 develop a spontaneous inflammatory colitis. They were treated with an Anti-CMKLR1 antibody (2G1) ( ) or isotype control (hIgG1) (x) intra-peritoneally (25 μg/injection, 3 times a week). A. Animal weight loss during and after treatment. B. Animal score stool.
# IL-10KO mice develop a spontaneous colitis from 20 weeks of age mostly due to the absence of regulatory T cells function through IL-10 secretion in the intestine. IL-10KO mice were followed-up three times a week from 18-week old for their weight loss and stool consistency which are clinical hallmarks of this pathology.
# [3] = system: mice M1 or M2 macrophages; assay: Cytokine secretion by mice M1 or M2 macrophages (ELISA), FIG. 15; format: cell-based; conditions: ELISA
# Description: FIG. 15. Study of the inflammatory cytokine secretion by human macrophages during CMKLR1 activation. After differentiation of human macrophages M1 or M2, cells were incubated in presence of medium, isotype control, anti-CMKLR1 antibodies (H6 and BZ194), C15 peptides, 2G1 anti-CMKLR1 antibody or RvE1. Secretion of IL10, CCL17 and IL12p40 were assessed by ELISA. Cytokines secretion is measured in the supernatant by using an ELISA kit from BD. Supernatant were diluted at 1/10 for IL10 cytokines, 1/50 for CCL17 cytokines and 1/100 for IL12p40 cytokines. A. IL10 cytokine secretion by M2 cells. B. CCL17 cytokine secretion by M2 cells. C. represents IL 12 cytokine secretion by M1 cells.
# Bone marrow cells were harvested and cultured in the RPMI medium supplemented with 10% FBS, glutamine and antibiotics containing macrophages colony-stimulating factor (M-CSF) at 100 ng/ml for 5 days inducing the macrophages differentiation. The macrophages were harvested and cultured for 2 days with either IFNg (20 ng/ml) and LPS (100 ng/ml) inducing the M1 polarization or with IL-4 (20 ng/ml) inducing the M2 polarization. Treatments were added during macrophage polarization at 2 μg/ml.
# After differentiation of mice M1 or M2 as explain above, cells were incubated in presence of medium, isotype control, anti-CMKLR1 antibodies: clones H6 and BZ194, C15 peptides, 2G1 the anti-CMKLR1 antibody of interest or RvE1 were used. Then the secretion of IL10, CCL17 and IL12p40 was assessed by ELISA. Cytokines secretion was measured in the supernatant using an ELISA kit from BD. Supernatants were diluted at 1/10 for IL10 cytokines, 1/50 for CCL17 cytokines and 1/100 for IL12p40 cytokines.
# Cytokines secretion was detected by ELISA according to the BD manufacturer instructions. Briefly, supernatants were diluted in the appropriate buffer and incubated for 2 hours after overnight coating with capture antibody and saturation. […] TMB supplied by BD Bioscience was used as substrate and colorimetric reaction was read with TECAN.
# Hepa 1.6 cells = assay: Orthotopic hepatocarcinoma (HCC) model, overall survival; conditions: FIG. 22; Hepa 1.6 HCC model; anti-CMKLR1 0.8 mg/kg, anti-PD1 8 mg/kg; followed sixty days
# Description: Effect of an anti-CMKLR1 antibody on an Hepatocarcinoma mice model (HCC model). […] Isotype control antibody was used at 0.8 mg/kg three times a week for 2 weeks. Mice response were considered partial (PR) when mice survive few days to 1 month after stop of treatment or complete (CR) when mice survive over 1 month or cured when they survive three times longer than the time necessary to all control mice dye.
# Method: Mice were anesthetized with a cocktail of xylazine/ketamine. After a laparotomy, tumoral Hepa 1.6 cells were injected in PBS through the portal vein (2.5·10^6 cells/100 μL) in PBS. The treatment was started 4 days after tumor injection. The anti-CMKLR1 antibody (2G1clone) and the hIgG1 istotype control were injected at 0.8 mg/kg three times per week during 2 weeks. The anti-PD1 monoclonal antibody was injected twice a week during 2 weeks intraperitoneally in PBS (8 mg/kg). Combination anti-CMKLR1 and anti-PD1 antibodies was tested as well (0.8 mg/kg and 8 mg/kg respectively).
molecule,measurement,setting,value
"2G1: chimeric anti-CMKLR1 antibody, murine variable regions (SEQ ID No: 10 and 17), human IgG1 constant regions; VH-CDR3 variant LI (antibody, V domains shown, human IgG1 constant regions, VH-CDR3 variant LI) VH: METDTLLLWVLLLWVPGSTGDEVQLVASGGGLVQPGGSLKLSCAASGFTFSSYGMSWVRQTPDRRLELVATINRYGGSTYYPDSVKGRFTISRDNAKNTLYLQMSSLKSEDTAMYYCPRLIYYGNEGDSWGQGTTLTVSS VL: METDTLLLWVLLLWVPGSTGDQIVLTQSPAIMSASPGEKVTMTCSASSSVSFMHWYQQKSGTSPKRWIYDTTKLTSGVPARFSGSGSGTFYSLTISSMEAEDAATYYCQQWNSKPPLTFGPGTKLELKR",level of detection of DCs expressing CD103 and IAb,"Mice dendritic cells; FIG. 1, FACS, compared with C7 antibody",lower than DCs cells treated with C7 antibody
same,DCs activation and/or maturation towards a pro-inflammatory pathway,"Mice dendritic cells; FIG. 1, mice dendritic cells, maturation 24 h or 48 h",inhibit DCs activation and/or maturation in a stronger manner than other synthetized antibodies (3G1 and 4G1)
same,"expression of CD80, CD86, CD103, CD40 and IAb (DC activation markers)","Mice dendritic cells; FIG. 17, FACS, compared to the excipient or isotype control",strong decrease
same,viability of cells,"Mice dendritic cells; FIGS. 1E and 1F, LIVE/DEAD kit, after 24 or 48 hours of maturation, compared with other antibodies, C7 or Resolvin E1",enhanced
same,overall state of the animals,"[1]; 10 μg per mouse i.p. three times, vs control antibody or RvE1",better overall state
same,weight loss,"[1]; FIG. 2A, 10 μg per mouse i.p.",lost significantly less weight
same,score stool,"[1]; FIG. 2B, 10 μg per mouse i.p.",significantly better
same,percentage of weight loss,[2]; FIG. 4A,lost less weight
same,score stool,[2]; FIG. 4B,better score stool
same,IL10 secretion by M2 type macrophages,[3]; FIG. 15A,induced
same,CCL17 secretion by M2 type macrophages,[3]; FIG. 15B,induced
same,pro-inflammatory cytokines (IL12) from M1 type macrophages,[3]; FIG. 15C,decreased
same,survival rate,Hepa 1.6 cells,15%
